Each block holds one binder with its values, some of them ahead of it.
Legend:
[1] = molecular target: Hsp82-MC (residues 260-709) (S. cerevisiae, UniProt P02829 260-709); assay: pull-down
[2] = molecular target: T1, Pih1/Nop17, full length, untagged, recombinant (monomeric species) (S. cerevisiae, UniProt P38768 1-344); assay: pull-down
T1 sequence: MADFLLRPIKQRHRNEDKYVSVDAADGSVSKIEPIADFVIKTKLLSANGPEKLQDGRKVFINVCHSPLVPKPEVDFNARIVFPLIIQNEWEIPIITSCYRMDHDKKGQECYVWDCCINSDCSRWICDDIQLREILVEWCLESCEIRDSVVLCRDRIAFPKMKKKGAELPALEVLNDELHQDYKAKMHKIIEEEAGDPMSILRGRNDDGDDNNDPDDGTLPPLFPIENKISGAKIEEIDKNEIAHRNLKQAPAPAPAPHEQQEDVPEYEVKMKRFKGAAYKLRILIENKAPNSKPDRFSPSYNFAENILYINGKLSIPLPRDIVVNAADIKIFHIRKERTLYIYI

[3] = molecular target: Rvb2, recombinant (S. cerevisiae, UniProt Q12464 1-471); assay: SEC
Sequence of Rvb2, recombinant (Q12464 whole entry): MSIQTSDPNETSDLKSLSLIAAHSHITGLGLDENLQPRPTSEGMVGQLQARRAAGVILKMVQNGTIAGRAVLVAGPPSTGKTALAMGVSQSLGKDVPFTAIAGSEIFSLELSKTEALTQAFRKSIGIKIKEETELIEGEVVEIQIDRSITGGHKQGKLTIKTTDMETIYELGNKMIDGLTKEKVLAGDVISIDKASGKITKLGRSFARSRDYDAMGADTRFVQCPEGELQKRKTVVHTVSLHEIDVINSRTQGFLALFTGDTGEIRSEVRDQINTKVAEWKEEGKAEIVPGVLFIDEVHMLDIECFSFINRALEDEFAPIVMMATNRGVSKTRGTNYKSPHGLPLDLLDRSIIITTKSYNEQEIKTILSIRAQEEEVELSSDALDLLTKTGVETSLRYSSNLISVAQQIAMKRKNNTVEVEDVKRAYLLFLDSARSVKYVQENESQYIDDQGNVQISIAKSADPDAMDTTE

Sequence of Hsp82-MC (residues 260-709) (P02829 260-709): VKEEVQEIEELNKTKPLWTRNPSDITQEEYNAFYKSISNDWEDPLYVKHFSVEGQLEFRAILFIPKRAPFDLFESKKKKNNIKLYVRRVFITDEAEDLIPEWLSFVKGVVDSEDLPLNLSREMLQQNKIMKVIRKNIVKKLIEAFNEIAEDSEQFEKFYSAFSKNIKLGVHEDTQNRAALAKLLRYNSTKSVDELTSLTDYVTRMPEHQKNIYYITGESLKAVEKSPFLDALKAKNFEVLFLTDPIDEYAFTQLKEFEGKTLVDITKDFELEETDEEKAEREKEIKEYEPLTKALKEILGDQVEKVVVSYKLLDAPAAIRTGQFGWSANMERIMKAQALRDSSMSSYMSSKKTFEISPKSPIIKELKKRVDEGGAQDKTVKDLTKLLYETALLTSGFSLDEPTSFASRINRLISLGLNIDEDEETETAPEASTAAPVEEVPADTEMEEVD

binding result [1]: binds
binding result [2]: binds
B1: Tah1, full length, recombinant (natural protein)
chain: MSQFEKQKEQGNSLFKQGLYREAVHCYDQLITAQPQNPVGYSNKAMALIKLGEYTQAIQMCQQGLRYTSTAEHVAIRSKLQYRLELAQGAVGSVQIPVVEVDELPEGYDRS

binding result [1]: binds
B2: Sti1 TPR2a domain (residues 260-386) (domain or fragment)
chain: IEADKEKAEGNKFYKARQFDEAIEHYNKAWELHKDITYLNNRAAAEYEKGEYETAISTLNDAVEQGREMRADYKVISKSFARIGNAYHKLGDLKKTIEYYQKSLTEHRTADILTKLRNAEKELKKAE

binding result [3]: binds
B3: Rvb1, recombinant (natural protein)
chain: MVAISEVKENPGVNSSNSGAVTRTAAHTHIKGLGLDESGVAKRVEGGFVGQIEAREACGVIVDLIKAKKMSGRAILLAGGPSTGKTALALAISQELGPKVPFCPLVGSELYSVEVKKTETLMENFRRAIGLRIKETKEVYEGEVTELTPEDAENPLGGYGKTISHVIVGLKSAKGTKTLRLDPTIYESIQREKVSIGDVIYIEANTGAVKRVGRSDAYATEFDLETEEYVPLPKGEVHKKKEIVQDVTLHDLDVANARPQGGQDVISMMGQLLKPKKTEITEKLRQEVNKVVAKYIDQGVAELIPGVLFIDEVNMLDIEIFTYLNKALESNIAPVVVLASNRGMTTVRGTEDVISPHGVPPDLIDRLLIVRTLPYDKDEIRTIIERRATVERLQVESSALDLLATMGTETSLRYALQLLAPCGILAQTSNRKEIVVNDVNEAKLLFLDAKRSTKILETSANYL
